{
  "source": "patent US20240238401A1",
  "molecular_target": "mAb binding to Consensus GII.4 VLPs (BioGenes; IgG clone #1-9-1)",
  "assay": "IVRP competition ELISA; serially diluted thin-film freeze-dried and reconstituted vaccine (4% trehalose or 5% sucrose, bulk or single-vial TFFD) competes for mAb against plate-coated VLP; reference is undried vaccine",
  "data": [
    {"substance": "Norovirus genotype GII.4 Consensus VLP (from UniProt P54635 1-539)", "values": [
      {"measurement": "relative potency (IVRP; inflection point of test vaccine divided by that of reference vaccine)", "value": "49 to 73", "unit": "%"}
    ]}
  ]
}
